Here are results for six substances from publication PMC6382882.

For assay [1], the target named is mKRb, recombinant fragment spanning the ketoreductase domain from module 7 of MLSB (Mycobacterium ulcerans). Put plainly: ITC; ACP species (1 mM) in the syringe injected into mKRb (50 uM) with 5 mM NADPH in the cell; 25 mM HEPES, 50 mM NaCl, 0.01% NaN3, pH 7.5, 30 °C; single binding site model; mean of three technical replicates. A general note: In ITC the heat of successive injections is recorded.

Assay [2] shares this target. Put plainly: ITC; ACP species (1 mM) in the syringe injected into mKRb (50 uM) with 5 mM NADP+ in the cell; 25 mM HEPES, 50 mM NaCl, 0.01% NaN3, pH 7.5, 30 °C; single binding site model; mean of three technical replicates.

As to “holo mACPb, short B1-type ACP domain from module 7 of MLSB with Ppant (domain or fragment)”, the Kd stood at 750 nM in assay [1] and 610 nM in assay [2].
As for “apo mH0ACPb, N-terminally extended B1-type ACP domain from module 7 of MLSB (domain or fragment)”, the Kd turned out to be 1430 nM in assay [1] and 1380 nM in assay [2].
Turning to “apo mH0ACPa, N-terminally extended A1-type ACP domain from module 5 of MLSA1 (from UniProt Q6MZA4 11087-11185) (domain or fragment)”, in assay [1], the Kd came out at 2200 nM.
For “holo mH0ACPb, N-terminally extended B1-type ACP domain from module 7 of MLSB with Ppant (domain or fragment)”, the Kd in assay [1] is 690 nM; in assay [2], 710 nM.
“holo mH0ACPa, N-terminally extended A1-type ACP domain from module 5 of MLSA1 with Ppant (from UniProt Q6MZA4 11087-11185) (domain or fragment)”: the Kd in assay [1] stood at 630 nM.
Take “apo mACPb, short B1-type ACP domain from module 7 of MLSB (domain or fragment)”: the Kd was 2200 nM in assay [1] and 2600 nM in assay [2]. Further, the stoichiometry N in assay [1] was 1.

In general, Kd refers to the equilibrium constant for the complex coming apart. What is called stoichiometry N is a count of units in the complex or per binding partner.
